This series deals with the molecule itself. The experiment in a line: X-ray crystals of CodY grown with GTP, with isoleucine and valine, or without effectors.

B1: Bacillus subtilis CodY protein (other, UniProt P39779 2-259, looked up)
chain: ALLQKTRIINSMLQAAAGKPVNFKEMAETLRDVIDSNIFVVSRRGKLLGYSINQQIENDRMKKMLEDRQFPEEYTKNLFNVPETSSNLDINSEYTAFPVENRDLFQAGLTTIVPIIGGGERLGTLILSRLQDQFNDDDLILAEYGATVVGMEILREKAEEIEEEARSKAVVQMAISSLSYSELEAIEHIFEELDGNEGLLVASKIADRVGITRSVIVNALRKLESAGVIESRSLGMKGTYIKVLNNKFLIELENLKSH
notes: For crystallization, B. subtilis CodY was overproduced in E. coli with a C-terminal or an N-terminal 6xHis tag; also called purified CodY protein
In the case of B1, the binding result is “binds”.

(Values after US8202695 (TUFTS UNIVERSITY, dated 2012).)
